The series relates to Saccharomyces cerevisiae. The experiment in a line: protein stability index of tFT-peptide fusion (C-terminal peptide) (PSI (0-1 scale)); higher = more stable (slower turnover). The note with it: temperature: 30 C. The method, then:
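MPS profiling in S. cerevisiae of the yeast C-terminome library: the last 12 aa of each annotated ORF are fused to the C-terminus of a sfGFP-mCherry timer, after a GGGS linker. Cells are FACS-sorted into 8 mCherry/sfGFP bins and deep-sequenced. PSI runs from 0 (unstable) to 1 (stable); wild type and das1Δ backgrounds, two technical replicates each.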

The mark [1] stands for this setting: genetic background: das1 deletion.

± gives the standard deviation of the averaged measurements.

For the sequence LEQYEKTLVHDD [GCV3 C-terminal 12 aa], the protein stability index reads like this: under setting [1], 0.6942 ± 0.00074; (genetic background: wild type) 0.678 ± 0.05.

Consider LERILHEMHPPA [EOS1 C-terminal 12 aa], for which the protein stability index worked out at 0.714 ± 0.012 under setting [1] and 0.726 ± 0.025 (genetic background: wild type).

As for LETLKKKKKRNN [MAK5 C-terminal 12 aa], the protein stability index is, setting by setting: under setting [1], 0.711 ± 0.014; (genetic background: wild type) 0.66348 ± 0.00034.

In turn, LFFLVGLQLAIP [YGR022C C-terminal 12 aa] displayed a protein stability index under setting [1] of 0.324 ± 0.002 and a protein stability index (genetic background: wild type) of 0.327 ± 0.0074.

With “LFQPIIVKPLRS [YHR007C-A C-terminal 12 aa]”, the protein stability index under setting [1] amounted to 0.599 ± 0.016 and the protein stability index (genetic background: wild type) came out at 0.625 ± 0.023.

Regarding LFTAMRTVLFGK [CBP6 C-terminal 12 aa], the protein stability index was 0.704 ± 0.0044 under setting [1] and 0.72 ± 0.14 (genetic background: wild type).

Regarding LGYTDDEIYNRQ [SER2 C-terminal 12 aa], the protein stability index is, setting by setting: under setting [1], 0.706 ± 0.026; (genetic background: wild type) 0.681 ± 0.036.

Consider LILHFVCLHFIN [OST2 C-terminal 12 aa], for which the protein stability index is, setting by setting: under setting [1], 0.544 ± 0.017; (genetic background: wild type) 0.184 ± 0.027.

LIRKMYYKNLKK [SSL2 C-terminal 12 aa]: the protein stability index by setting is: under setting [1], 0.693 ± 0.05; (genetic background: wild type) 0.757 ± 0.028.

As to LIYLNETLGTRL [IRC19 C-terminal 12 aa], the protein stability index by setting is: under setting [1], 0.705 ± 0.015; (genetic background: wild type) 0.671 ± 0.003.

LKDEKRGDNVLA [THS1 C-terminal 12 aa]: the protein stability index by setting is: under setting [1], 0.6983 ± 0.0068; (genetic background: wild type) 0.67 ± 0.018.

For the sequence LKHNGQRKLAST [ANT1 C-terminal 12 aa], the protein stability index runs as follows: under setting [1], 0.685 ± 0.034; (genetic background: wild type) 0.701 ± 0.033.

With LKKPRSGFHVIV [YFR006W C-terminal 12 aa], the protein stability index by setting is: under setting [1], 0.69 ± 0.027; (genetic background: wild type) 0.6371 ± 0.0052.

For LKQENAYLLIRR [RPB8 C-terminal 12 aa], the protein stability index under setting [1] came out at 0.693 ± 0.0081 and the protein stability index (genetic background: wild type) is 0.68 ± 0.01.

In the case of LKRTAIQFAAFS [SEC5 C-terminal 12 aa], the protein stability index reads like this: under setting [1], 0.6855 ± 0.0022; (genetic background: wild type) 0.6844 ± 0.0012.

LLIQEEMKLKEV [YPK9 C-terminal 12 aa]: the protein stability index worked out at 0.7188 ± 0.0014 under setting [1] and 0.703 ± 0.022 (genetic background: wild type).

For the sequence LLLPITSSLLFI [MIN4 C-terminal 12 aa], the protein stability index came to 0.618 ± 0.011 under setting [1] and 0.62 ± 0.021 (genetic background: wild type).

Regarding “LLMVGVPLLFSS [YPR159C-A C-terminal 12 aa]”, the protein stability index is, setting by setting: under setting [1], 0.6249 ± 0.00071; (genetic background: wild type) 0.6282 ± 0.0051.

Consider LLSLLRVLKQPH [CSS1 C-terminal 12 aa], for which the protein stability index runs as follows: under setting [1], 0.675 ± 0.023; (genetic background: wild type) 0.66 ± 0.011.

In the case of LMGAALAAVMLL [FIT3 C-terminal 12 aa], the protein stability index is 0.6841 ± 0.0054 under setting [1] and 0.6409 ± 0.0026 (genetic background: wild type).

As for LMNAQSNETKLN [PTC6 C-terminal 12 aa], the protein stability index is 0.7111 ± 0.0056 under setting [1] and 0.692 ± 0.033 (genetic background: wild type).

For the sequence LMPSASLQDFYG [VID27 C-terminal 12 aa], the protein stability index is, setting by setting: under setting [1], 0.73 ± 0.014; (genetic background: wild type) 0.726 ± 0.014.

Regarding LNFFAEETLDFE [EAT1 C-terminal 12 aa], the protein stability index runs as follows: under setting [1], 0.734 ± 0.033; (genetic background: wild type) 0.689 ± 0.033.

As for LNLPWKRKKTTI [YCR101C C-terminal 12 aa], the protein stability index runs as follows: under setting [1], 0.707 ± 0.017; (genetic background: wild type) 0.686 ± 0.019.

In the case of LNPIRSLRYCNY [YPP1 C-terminal 12 aa], the protein stability index runs as follows: under setting [1], 0.7156 ± 0.0026; (genetic background: wild type) 0.629 ± 0.024.

As to LNSIDPALISKY [AFT2 C-terminal 12 aa], the protein stability index runs as follows: under setting [1], 0.744 ± 0.035; (genetic background: wild type) 0.741 ± 0.036.

For LQALIIVQVMFS [YLL059C C-terminal 12 aa], the protein stability index was 0.128 ± 0.025 under setting [1] and 0.157 ± 0.013 (genetic background: wild type).

Take LQAVAVAVSTKK [FAS2 C-terminal 12 aa]: the protein stability index is, setting by setting: under setting [1], 0.659 ± 0.01; (genetic background: wild type) 0.65 ± 0.033.

On to LQESKSQEKNKI [MRX19 C-terminal 12 aa], for which the protein stability index was 0.7135 ± 0.0016 under setting [1] and 0.782 ± 0.06 (genetic background: wild type).

For the sequence LQVKAVRAKLDE [ALD4 C-terminal 12 aa], the protein stability index runs as follows: under setting [1], 0.699 ± 0.031; (genetic background: wild type) 0.68 ± 0.037.

Regarding LREMMNKDFAGL [PSD2 C-terminal 12 aa], the protein stability index runs as follows: under setting [1], 0.708 ± 0.02; (genetic background: wild type) 0.698 ± 0.0081.

For the sequence “LRKNRSLDERYF [YML057C-A C-terminal 12 aa]”, the protein stability index came out at 0.7089 ± 0.0023 under setting [1] and 0.6568 ± 0.0029 (genetic background: wild type).

In the case of LRNKPFWENKRL [IPL1 C-terminal 12 aa], the protein stability index came to 0.702 ± 0.019 under setting [1] and 0.696 ± 0.015 (genetic background: wild type).

On to LRRIAKKHHKKK [SPB1 C-terminal 12 aa], for which the protein stability index under setting [1] came out at 0.699 ± 0.044 and the protein stability index (genetic background: wild type) was 0.722 ± 0.034.

For the sequence LRRLTSPSRTQP [BAG7 C-terminal 12 aa], the protein stability index is, setting by setting: under setting [1], 0.71894 ± 0.00039; (genetic background: wild type) 0.705 ± 0.012.

LRSKGKRYDTRS [YJR018W C-terminal 12 aa]: the protein stability index under setting [1] worked out at 0.7035 ± 0.0016 and the protein stability index (genetic background: wild type) was 0.708 ± 0.024.

With LRSKSRLRGSHT [AHC1 C-terminal 12 aa], the protein stability index under setting [1] is 0.73 ± 0.014 and the protein stability index (genetic background: wild type) is 0.654 ± 0.038.

Consider LSATIFLRGFLL [YIM2 C-terminal 12 aa], for which the protein stability index by setting is: under setting [1], 0.675 ± 0.029; (genetic background: wild type) 0.649 ± 0.031.

Regarding LSFVLASLNANK [FUN14 C-terminal 12 aa], the protein stability index by setting is: under setting [1], 0.678 ± 0.021; (genetic background: wild type) 0.67 ± 0.037.

Regarding LSIGQKLTTPLC [SYC1 C-terminal 12 aa], the protein stability index is 0.651 ± 0.015 under setting [1] and 0.656 ± 0.029 (genetic background: wild type).

Consider “LSLIYSPHLYMS [YJL136W-A C-terminal 12 aa]”, for which the protein stability index under setting [1] is 0.643 ± 0.013 and the protein stability index (genetic background: wild type) turned out to be 0.101 ± 0.0022.

As for LSNIITLCRIIV [PEX34 C-terminal 12 aa], the protein stability index by setting is: under setting [1], 0.465 ± 0.0065; (genetic background: wild type) 0.319 ± 0.0077.

LSQLVKKKPRRH [HIF1 C-terminal 12 aa] displayed a protein stability index under setting [1] of 0.6885 ± 0.0039 and a protein stability index (genetic background: wild type) of 0.729 ± 0.073.

Turning to LSVKWAVNTLMS [SRP101 C-terminal 12 aa], the protein stability index runs as follows: under setting [1], 0.671 ± 0.014; (genetic background: wild type) 0.568 ± 0.039.

On to LTSMSARIAFDN [AAD14 C-terminal 12 aa], for which the protein stability index stood at 0.7219 ± 0.0034 under setting [1] and 0.699 ± 0.024 (genetic background: wild type).

As for LVASNFFYAETK [TFS1 C-terminal 12 aa], the protein stability index by setting is: under setting [1], 0.7066 ± 0.00069; (genetic background: wild type) 0.687 ± 0.028.

For the sequence LVPEEEEETKDR [GRX5 C-terminal 12 aa], the protein stability index by setting is: under setting [1], 0.7214 ± 0.0068; (genetic background: wild type) 0.698 ± 0.033.

As to LYAFHQVGIHFS [DIM1 C-terminal 12 aa], the protein stability index was found to be 0.709 ± 0.032 under setting [1] and 0.685 ± 0.014 (genetic background: wild type).

For LYELKGLLGNDS [INP2 C-terminal 12 aa], the protein stability index turned out to be 0.681 ± 0.021 under setting [1] and 0.673 ± 0.032 (genetic background: wild type).

In the case of LYHKDADTIFHA [IRC11 C-terminal 12 aa], the protein stability index came to 0.708 ± 0.014 under setting [1] and 0.715 ± 0.015 (genetic background: wild type).
